We go through 1 molecule from patent US9505841B2, “Use of an anti-Ang2 antibody” (Samsung Electronics Co., Ltd., priority 2013, dated 2016).

For experiment [1], the system named is Vascular endothelial cells (HUVEC). The experiment is described as follows: BrdU proliferation assay, vascular endothelial cells. It is filed as cell-based, human. Conditions: 2 ug/ml Ang2 with 10 ug/ml antibody; 3 days. On the procedure: The measurement assay of the proliferation of vascular and lymphatic endothelial cells was conducted using a BrdU assay kit (Roche) Cell. Vascular endothelial cells of P3˜P8 (HUVEC, ATCC) or lymphatic endothelial cells (Lonza) were placed in a collagen-coated 96-well plate (BD Bioscience) at 3000˜5000 cells/well and cultured in EGM-2 media (Lonza) for 16˜24 hours. A mixture of 2 ug/ml of Ang2 (R&D systems) and 10 ug/ml of antibody 10D6 in 2% EBM media was added to the 96-well plate washed with PBS, which was then cultured for 3 days.
For efficiency comparison, an anti-Ang2 antibody (MEDI: Medlmmune Co.) was used. For a BrdU assay, 10 ul of BrdU solution diluted at 1:1,000 was added to each well of the plate to label the cells. The cells were cultured for 1 hour and after the removal of the culture solution, 100 ul of Fixation/Denaturation solution (Roche) was added to each well and then, removed after 30-min wait. An anti-BrdU antibody (Roche) conjugated with peroxidase was diluted in a dilution buffer (Roche) at 1:100, added to each well to react for 1 hour and then, washed four times using a washing buffer (Roche). 100 ul of a TMB substrate was added thereto to react and then, absorption was measured at 450 nm using a Microplate reader (Perkin Elmer).

For a further experiment, the system named is ICAM-1. In words: LPS-induced mRNA expression of ICAM-1 in HUVEC (qPCR). It is filed as cell-based, human. The settings on record: 100 ng/ml LPS 5 hours, 0.2 ug/ml Ang1 or 0.1 ug/ml Ang2 + 0.5 ug/ml antibody. On the procedure: To see anti-inflammatory effects by antibody 10D6, HUVEC (ATCC) cells (4×10^5) were treated with Ang2 alone or Ang2 together with antibody 10D6, and a group in which Ang1 and Ang2 (R&D systems) and Regeneron Co. antibody (RG antibody) were co-treated was included as a control group. HUVEC cells were treated with 0.2 ug/ml of Ang1, 0.1 ug/ml of Ang2, or 0.1 ug/ml of Ang2 and 0.5 ug/ml of antibody, respectively and after 30-min. pre-incubation, they were treated with 100 ng/ml of LPS (Sigma) to induce inflammatory response and incubated for 5 hours.
The degree of the inflammatory response was identified by measuring the mRNA expression degree of an inflammatory adhesion substance (ICAM-1, E-selectin). The cells were washed using PBS, RNA was extracted using RNeasy Mini kit (Qiagen), and among them, 2 ug of RNA was synthesized into cDNA using Transcriptor First Strand cDNA synthesis kit (Roche). qPCR reaction was performed using RT2 SYBR™ Green Mastermix (Qiagen) and LightCycler™ 480 Real-Time PCR System (Roche). As an internal control for calibrating the amount of RNA in a sample, HPRT1 was used, and qPCR complied with the following procedures with regard to all the primers.
Step 1: 95° C., 10 min; Step 2 (45 cycles): Step 2-1: 95° C., 15 sec; Step 2-2: 60° C., 1 min; Step 3: 65° C., 15 sec; Step 4: 95° C., continuous (every 20° C.); Step 6: 40° C., 10 sec.
In general terms: In qPCR the cycle at which signal appears reflects the starting amount.

Experiment [2] deals with human colorectal cancer cell line Colo205. In words: Colo205 colorectal cancer xenograft tumor growth. It is filed as in vivo, mouse. Conditions: BALB/c nude mice; 10 mg/kg intraperitoneal twice a week. On the procedure: To see the tumor growth inhibitory effects of Ang2 antibody, a colorectal cancer xenograft model using a human colorectal cancer cell line Colo205 (ATCC) was employed.
The Colo205 cell line was cultured using 10% FBS (Gibco)-supplemented RPMI-1640 (Gibco) media. 5×10^5 of Colo205 cell line were re-suspended in 100 ul of serum-free media and then subcutaneously injected into anesthetic 4˜5-week-old BALB/c nude mice (Shanghai SLAC Laboratory Animal Co. Ltd.) anesthetized with 1-2% isoflurane. When the size of tumors reached 100˜200 mm^3, anti-Ang2 antibody (10D6) was injected at the concentration of 10 mg/kg via an intraperitoneal injection twice a week and the size of the tumors was measured.
The size of tumor (V) was calculated using the following formula: V=(length×width^2)/2

For experiment [3], the system named is blood vessels in tumor tissues. The experiment is described as follows: Immunofluorescence of blood vessels (CD31) and pericytes (PDGFR-β) in LLC tumors. The experiment is classed as in vivo, mouse. The settings on record: LLC tumors of Example 14; compared to Fc- or 4H10-treated tumors. An excerpt: To examine changes in blood vessels in tumor tissues after treated with antibody, frozen sections were obtained and subjected to immunofluorescence staining using a blood vessel specific marker, CD31 and a pericyte specific marker, PDGFR-β.
In particular, the tumor tissues obtained from Example 14 were frozen using OCT compound (Sakura Finetek), and frozen sections were obtained therefrom using cryostat (Leica). The obtained tumor frozen sections were blocked with 0.3% TBST (TBS mixed with 0.3% Triton X-100) buffer supplemented with 5% goat serum (Jackson Immunoresearch) for one hour. To the blocking buffer, hamster anti-CD31 antibody (1:200, Millipore) and rat anti-PDGF receptor beta antibody (1:200, eBioscience) were added, and the frozen sections were added thereto to be allowed to react for 3 hours. the reacted product was washed with TBS three times, and then, the blocking buffer mixed with cy3-conjugated anti-hamster IgG antibody and FITC-conjugated anti-rat IgG antibody (1:1,000, Jackson Immunoresearch) was added the frozen sections to be allowed to react for 2 hours. After washing with TBS three times, the frozen sections were covered with coverslip (Marenfield) using Fluorescence mounting medium (DAKO). The stained tumor frozen sections were observed using LSM5 (Zeiss) confocal microscope. […]

A further experiment deals with LLC tumor tissues. The experiment is described as follows: H&E staining of necrotic region in LLC tumors. The experiment is classed as in vivo, mouse. The settings on record: 10 mg/kg i.p., five administrations, compared to Fc- or 4H10-treated group. On the procedure:
To see the effects of the structurally and functionally normalized blood vessels in tumor by treatment of antibody 10D6 on the tumor tissues, referring to the method of Example 14, LLC tumor cells were subcutaneously injected into mice. When the size of tumors reached 50˜100 mm^3, anti-Ang2 antibody 10D6 was injected at the concentration of 10 mg/kg via an intraperitoneal injection three times a week and the size of the tumors was measured. After administering the antibody five-times, the tumor sections were stained with H&E according to standard protocol, and then, the Eosin+ cell necrotic region in tumor tissues was confirmed. For comparison, the same experiment was performed to a control group treated with Fc of IgG1 and a comparative group treated with antibody 4H10 (refer to Example 3).

B1: 10D6: mouse anti-Ang2 monoclonal antibody from hybridoma KCLRF-BP-00295; heavy chain variable region SEQ ID NO: 7, light chain variable region SEQ ID NO: 9 (antibody, V domains shown)
VH: DVQLQESGPGLVKPSQSLSLTCTVTGYSITSDYAWNWIRQFPGNKLEWMGYINYSGNTDYNPSLKSRSSITRDTSKNQFFLQLNSVTTGDTATYYCARGNFEGAMDYWGQGTSVTVSS
VL: SIVMTQTPKFLLVSAGDRVTITCKASQSVSNDVAWYQQKPGQSPKLLIYYASNRYPGVPDRFTGSGYGTDFTFTISTVQAEDLAVYFCQQDYSSPWTFGGGTKLEIK
modifications: Synthetic (Heavy chain variable region of an anti-Ang2 antibody); Synthetic (Light chain variable region of anti-Ang2 antibody)
B1: the “growth of vascular endothelial cells (BrdU)” value in experiment [1] was “increased”. Moreover, in the experiment with ICAM-1, the “expression of ICAM-1 induced by LPS” value is recorded as “remarkably suppressed”. Besides, the “tumor growth in Colo205 xenograft” value in experiment [2] is on record as “inhibited the growth of colorectal cancer”. Further, in experiment [3], the “blood vessel density and vascular normalization in tumor” value is “decreases the density of blood vessels in tumor and induces vascular normalization”. Besides, in the experiment with LLC tumor tissues, the “cell necrotic region in tumor tissues” value was “smaller”.
